Test results published in patent US11827699 (dated 2023).

Target: T1, human FcγRIIa R131 (human, UniProt P12318)
T1 chain: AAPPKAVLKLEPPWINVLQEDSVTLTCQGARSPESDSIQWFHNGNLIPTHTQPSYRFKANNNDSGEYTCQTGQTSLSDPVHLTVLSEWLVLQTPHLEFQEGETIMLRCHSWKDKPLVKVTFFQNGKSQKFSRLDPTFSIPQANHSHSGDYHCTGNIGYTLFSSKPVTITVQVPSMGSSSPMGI
Test: SPR

Kd: 600 nM
B1: IL6R-BP223 (antibody)
chain 1: QVQLQESGPGLVKPSETLSLTCAVSGHSISHDHAWSWVRQPPGEGLEWIGFISYSGITNYNPSLQGRVTISRDNSKNTLYLQMNSLRAEDTAVYYCARSLARTTAMDYWGEGTLVTVSSASTKGPSVFPLAPSSKSTSGGTAALGCLVKDYFPEPVTVSWNSGALTSGVHTFPAVLQSSGLYSLSSVVTVPSSSLGTQTYICNVNHKPSNTKVDKKVEPKSCDKTHTCPPCPAPEYLGDDSVFLFPPKPKDTLMISRTPEVTCVVVDVSDEDGEVKFNWYVDGVEVHNAKTKPREEQYNSTYRVVSVLTVLHQDWLNGKEYKCKVSNAALPRPIEKTISKAKGQPREPQVYTLPPSRDELTKNQVSLTCLVKGFYPSDIAVEWESNGQPENNYKTTPPVLDSDGSFFLYSKLTVDKSRWQQGNVFSCSVMHEALHNHYTQESLSLSP
chain 2: not shown
